This test deals with mesothelin-Fc fusion protein (human) (UniProt Q13421). Description: cell-based or functional assay.
Chain of UniProt Q13421 (Q13421 other isoform, or with tags, fused parts or gaps limits assumed): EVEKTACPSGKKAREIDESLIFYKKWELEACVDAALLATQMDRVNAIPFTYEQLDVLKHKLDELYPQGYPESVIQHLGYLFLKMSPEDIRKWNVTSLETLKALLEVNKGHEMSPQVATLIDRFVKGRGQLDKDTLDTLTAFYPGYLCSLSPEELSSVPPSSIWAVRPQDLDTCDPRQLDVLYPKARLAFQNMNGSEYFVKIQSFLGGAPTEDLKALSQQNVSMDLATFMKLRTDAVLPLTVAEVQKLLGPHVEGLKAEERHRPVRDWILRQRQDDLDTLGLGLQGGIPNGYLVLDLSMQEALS

For the substance “mesothelin-specific 28z CAR (SS1 scFv, CD28 and CD3z domains)”, the Total Population Doublings (donor 1) (population doublings) worked out at 5.8, the Total Population Doublings (donor 2) (population doublings) was 6.9 and the Total Population Doublings (donor 3) (population doublings) came out at 6.

As for “mesothelin-specific BBz CAR (SS1 scFv, 4-1BB and CD3z domains)”, the Total Population Doublings (donor 1) (population doublings) came to 8.8, the Total Population Doublings (donor 2) (population doublings) was 8.4 and the Total Population Doublings (donor 3) (population doublings) came out at 8.4.

These data come from patent US20250230217A1.
